Source: article PMC9740503, “[^68Ga]Ga-DATA^5m-LM4, a PET Radiotracer in the Diagnosis of SST2R-Positive Tumors: Preclinical and First Clinical Results” (International Journal of Molecular Sciences, 2022)
Like-named read-outs stand apart in the source and are kept apart here. Positions of bridges follow the written chain, without caps; N, C: chain ends. Non-standard residues stand in square brackets, D forms with d. Residues, ends and D or L forms follow the SMILES beside them. *: point of attachment. DOTA = O=C(O)CN1CCN(CC(=O)O)CCN(CC(=O)*)CCN(CC(=O)O)CC1; X1 = CN(CC(=O)O)C1(CCCCC(=O)*)CN(CC(=O)O)CCN(CC(=O)O)C1; dPhe(4-NHCONH2) = NC(=O)Nc1ccc(C[C@@H](N)C(=O)O)cc1; Phe(4-Cl) = N[C@@H](Cc1ccc(Cl)cc1)C(=O)O; 4Pal = N[C@@H](Cc1ccncc1)C(=O)O

Tests used:
[1] = target: T1, human SST2R (Homo sapiens, UniProt P30874); test: Competition binding against [125I-Tyr25]LTT-SS28 in HEK293-SST2R cell membranes; settings: HEK293-SST2R cell membrane homogenates; 1 h at 22 °C; 50 mM HEPES pH 7.4 binding buffer; mean ± sd, n = 3 independent experiments in triplicate; read-out: IC50, displacement of [125I-Tyr25]LTT-SS28 from SST2R binding sites
T1 construct: expressed in transfected cells
T1 sequence (P30874 whole entry): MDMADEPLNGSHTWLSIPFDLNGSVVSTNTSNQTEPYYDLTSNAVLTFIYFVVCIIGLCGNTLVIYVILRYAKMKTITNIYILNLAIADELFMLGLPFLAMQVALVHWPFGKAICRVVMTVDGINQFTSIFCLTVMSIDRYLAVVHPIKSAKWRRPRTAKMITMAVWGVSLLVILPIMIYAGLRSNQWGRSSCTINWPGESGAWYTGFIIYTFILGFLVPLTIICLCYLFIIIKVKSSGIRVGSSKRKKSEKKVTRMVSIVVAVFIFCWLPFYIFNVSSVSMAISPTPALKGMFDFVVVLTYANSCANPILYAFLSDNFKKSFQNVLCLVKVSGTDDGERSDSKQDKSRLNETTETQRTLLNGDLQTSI
Method: The binding affinities of DATA^5m-LM4 and [^natGa]Ga-DATA^5m-LM4 for the human SST2R were determined via competition binding assays against [^125I-Tyr^25]LTT-SS28 in freshly harvested HEK293-SST2R cell membranes. As depicted in Figure 2, DATA^5m-LM4 as well as its [^natGa]Ga-tagged version displaced [^125I-Tyr^25]LTT-SS28 from SST2R-binding sites in the membrane homogenates in a monophasic and dose-dependent manner.
Competition binding assays for DATA^5m-LM4 and [^natGa]Ga-DATA^5m-LM4 were performed in freshly harvested HEK293-SST2R cell membranes against [^125I-Tyr^25]LTT-SS28 [30, 33]. […] Filters were collected and their activity measured in a γ-counter (automated multi-sample well-type instrument with a NaI(Tl) 3″ crystal, Canberra Packard Cobra^TM Quantum U5003/1, Auto-Gamma® counting system). The half-maximal inhibitory concentration (IC50) values were calculated by nonlinear regression for a one-site model applying the PRISM^TM 6.0 GraphPad software (San Diego, CA, USA) and represent mean IC50 ± sd values from at least three independent experiments were performed in triplicate.

[2] = system: HEK293-SST2R cells; test: Radioligand uptake/internalization in HEK293-SST2R cells; format: cell-based, human; settings: 1 h at 37 °C, 0.5 pmol total peptide, specific, % of total added activity, mean ± sd, 3 independent experiments in triplicate
Method: This distinct cell distribution pattern between [^67Ga]Ga-DATA^5m-LM4 and [^67Ga]Ga-DOTA-TOC is consistent with an SST2R antagonist and agonist behavior, respectively. […] Cells were seeded in poly-lysine coated six-well plates (1 × 10^6/well) and grew to confluent monolayers overnight. At the day of the experiment, plates were placed on ice and rinsed twice with chilled internalization medium (DMEM Glutamax-I supplemented by 1% (v/v) FBS). […] In the upper three wells internalization medium was added (150 μL, total) and in the lower three a solution of TATE to a final concentration of 1 μM (150 μL, non-specific). After 60 min incubation at 37 °C, the medium was removed and cells were washed with ice-cold 0.5% BSA-PBS. Cells were incubated (2 × 5 min) at ambient temperature in acid wash buffer (50 mM glycine in 0.1 M NaCl, pH 2.8) and supernatants were collected (membrane-bound fraction). After rinsing with 0.5% BSA-PBS, the cells were lysed by treatment with 1 N NaOH; the lysates were collected (internalized fraction). Samples were measured in the γ-counter and cell-associated/internalized radioactivity vs. total added activity per well was calculated. Specific values were obtained by subtracting values in the presence of excess TATE (lower well triplicates) from those without the addition of blocker (upper well triplicates). […]

[3] = Biodistribution in SCID mice bearing twin HEK293-SST2R and wtHEK293 tumors; format: in vivo; settings: male, mouse, iv, 10 pmol, total radioactivity
Method: Inocula containing a suspension of freshly-harvested HEK293-SST2R cells (150 μL, 1.2 × 10^7cells in normal saline) and wtHEK293 cells (150 μL, 0.6 × 10^7 cells in normal saline) were subcutaneously (sc) injected in the right and left flanks of male SCID mice (21.5–25.0 g body weight, six weeks of age on arrival day; NCSR “Demokritos” Animal House, Athens, Greece). Mice were kept under aseptic conditions for about 2 weeks until well-palpable tumors (300–600 mg) were grown at the inoculation sites. […] Samples of blood and tissues of interest were collected along with implanted tumors, weighted and counted in the gamma counter. Biodistribution results were calculated as percent of the injected activity per gram tissue (%IA/g) with the aid of appropriate standards of the administered dose and the Microsoft Excel program. Results are presented as mean %IA/g values ± sd, n = 4 per time point, as determined by the PRISM^TM 6.0 GraphPad software (San Diego, CA, USA). […]

[4] = system: SST2R; settings: against the same radioligand; read-out: IC50, SST2R autoradiography; cited from earlier work
Description: On the other hand, by changing the metal to Lu the IC50 determined for [^natL ...

C[C@@H](O)[C@@H]1NC(=O)[C@H](CCCCN)NC(=O)[C@@H](Cc2ccc(NC(N)=O)cc2)NC(=O)[C@H](Cc2ccncc2)NC(=O)[C@H](NC(=O)[C@H](Cc2ccc(Cl)cc2)NC(=O)CCCCC2(N(C)CC(=O)O)CN(CC(=O)O)CCN(CC(=O)O)C2)CSSC[C@@H](C(=O)N[C@H](Cc2ccc(O)cc2)C(N)=O)NC1=O [DATA^5m-LM4] (X1-[Phe(4-Cl)][dC][4Pal][dPhe(4-NHCONH2)]KTC[dY]-NH2; disulfide 2-7) showed an IC50 [1] of 1.24 ± 0.2 nM.
For C[C@@H](O)[C@@H]1NC(=O)[C@H](CCCCN)NC(=O)[C@@H](Cc2ccc(NC(N)=O)cc2)NC(=O)[C@H](Cc2ccc(O)cc2)NC(=O)[C@H](NC(=O)[C@H](Cc2ccc(Cl)cc2)NC(=O)CN2CCN(CC(=O)O)CCN(CC(=O)O)CCN(CC(=O)O)CC2)CSSC[C@@H](C(=O)N[C@H](Cc2ccc(O)cc2)C(N)=O)NC1=O [[^67Ga]Ga-DOTA-LM3, metal not drawn] ({DOTA}-[Phe(4-Cl)][dC]Y[dPhe(4-NHCONH2)]KTC[dY]-NH2; disulfide 2-7), the “total cell uptake (membrane bound + internalized)” value [2] was 2.51 ± 0.36%, the tissue uptake at 1 h ([3]; HEK293-SST2R tumor (Tu+), 1 h pi, iv 10 pmol total peptide, mean ± sd, n = 4, read-out: Tu+ (HEK293-SST2R tumor) uptake) was 25.3 ± 6.23 %ID/g and the tissue uptake at 4 h ([3]; HEK293-SST2R tumor (Tu+), 4 h pi, iv 10 pmol total peptide, mean ± sd, n = 4, read-out: Tu+ (HEK293-SST2R tumor) uptake) was 16.8 ± 1.22 %ID/g. It also gave a tissue uptake at 1 h ([3]; in vivo, Blood uptake) of 1.18 ± 0.03 %ID/g, a tissue uptake at 4 h ([3]; in vivo, Blood uptake) of 1.73 ± 0.47 %ID/g and a tissue uptake at 1 h ([3]; in vivo, Femur uptake) of 1.39 ± 0.39 %ID/g. The tissue uptake at 4 h ([3]; in vivo, Femur uptake) was 0.67 ± 0.14 %ID/g, the tissue uptake at 1 h ([3]; in vivo, Heart uptake) was 1.54 ± 0.78 %ID/g and the tissue uptake at 4 h ([3]; in vivo, Heart uptake) was 0.66 ± 0.14 %ID/g. For the same compound, the tissue uptake at 1 h ([3]; in vivo, Intestines uptake) was 1.26 ± 0.52 %ID/g, the tissue uptake at 4 h ([3]; in vivo, Intestines uptake) was 1.41 ± 0.37 %ID/g and the tissue uptake at 1 h ([3]; in vivo, Kidneys uptake) was 36 ± 5.96 %ID/g. The tissue uptake at 4 h ([3]; in vivo, Kidneys uptake) was 37.6 ± 3.44 %ID/g, the tissue uptake at 1 h ([3]; in vivo, Liver uptake) was 1.82 ± 0.63 %ID/g and the tissue uptake at 4 h ([3]; in vivo, Liver uptake) was 1.43 ± 0.19 %ID/g. For the same compound, the tissue uptake at 1 h ([3]; in vivo, Lungs uptake) was 3 ± 0.77 %ID/g, the tissue uptake at 4 h ([3]; in vivo, Lungs uptake) was 1.21 ± 0.24 %ID/g and the tissue uptake at 1 h ([3]; in vivo, Muscle uptake) was 0.56 ± 0.22 %ID/g. For the same compound, the tissue uptake at 4 h ([3]; in vivo, Muscle uptake) was 0.25 ± 0.06 %ID/g, the tissue uptake at 1 h ([3]; in vivo, Pancreas uptake) was 1.49 ± 0.71 %ID/g and the tissue uptake at 4 h ([3]; in vivo, Pancreas uptake) was 1.24 ± 0.44 %ID/g. It also gave a tissue uptake at 1 h ([3]; in vivo, Spleen uptake) of 1.73 ± 0.85 %ID/g, a tissue uptake at 4 h ([3]; in vivo, Spleen uptake) of 1.06 ± 0.25 %ID/g and a tissue uptake at 1 h ([3]; in vivo, Stomach uptake) of 0.8 ± 0.17 %ID/g. For the same compound, the tissue uptake at 4 h ([3]; in vivo, Stomach uptake) was 0.5 ± 0.08 %ID/g, the tissue uptake at 1 h ([3]; wtHEK293 tumor (Tu-), 1 h pi, iv 10 pmol total peptide, mean ± sd, n = 4, read-out: Tu- (wtHEK293 tumor) uptake) was 1.45 ± 0.27 %ID/g and the tissue uptake at 4 h ([3]; wtHEK293 tumor (Tu-), 4 h pi, iv 10 pmol total peptide, mean ± sd, n = 4, read-out: Tu- (wtHEK293 tumor) uptake) was 1.13 ± 0.31 %ID/g.
For “DOTA-DPhe-c[DCys-Tyr-DAph(Cbm)-Lys-Thr-Cys]-DTyr-NH2 (disulfide) [DOTA-LM3, DOTA-derivatized SST2R antagonist LM3]”, the IC50 [4] is given as 1.4 ± 0.5 nM.
In the case of “[^natGa]Ga-DATA^5m-LM4: DATA5m-LM4 tagged with natural gallium (DATA5m-[Phe(4-Cl)][dC][4Pal][dPhe(4-NHCONH2)]KTC[dY]-NH2; disulfide 2-7; also: complexed with natural gallium)”, the IC50 [1] is reported as 1.61 ± 0.32 nM.
